We go through 5 molecules from PMC4587348 (Archives of biochemistry and biophysics, 2015).

Series [1] addresses ScHIcDH (homoisocitrate dehydrogenase from Saccharomyces cerevisiae) (Saccharomyces cerevisiae, UniProt P40495, D271N). In words: initial rate, NADH formation at […] nm, dead-end inhibition. The series is classed as biochemical.
Series [2] relates to Tyr150. Description: kinetics. The conditions noted are these: cited from earlier work.
The subject of series [3] is Lys206. Description: kinetics. The conditions noted are these: Steady-state turnover at saturating reactants (V/Et); cited from earlier work.

ScHIcDH (homoisocitrate dehydrogenase from Saccharomyces cerevisiae), sequence (P40495 23-371 D271N): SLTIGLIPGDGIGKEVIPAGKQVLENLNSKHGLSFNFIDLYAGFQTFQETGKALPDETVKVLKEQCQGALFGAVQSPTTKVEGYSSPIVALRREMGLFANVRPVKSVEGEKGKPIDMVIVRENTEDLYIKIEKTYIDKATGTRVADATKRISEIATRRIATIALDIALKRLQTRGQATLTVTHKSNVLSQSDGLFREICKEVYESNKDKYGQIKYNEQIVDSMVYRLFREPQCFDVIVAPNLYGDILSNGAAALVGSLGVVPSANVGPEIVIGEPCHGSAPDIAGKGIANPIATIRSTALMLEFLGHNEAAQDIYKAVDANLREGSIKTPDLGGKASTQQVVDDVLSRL

In general, Ki refers to the dissociation constant of the complex between target and ligand, obtained from inhibition or displacement. Take `CC(=O)c1ccc[n+]([C@@H]2O[C@H](COP(=O)([O-])OP(=O)(O)OC[C@H]3O[C@@H](n4cnc5c(N)ncnc54)[C@H](O)[C@@H]3OP(=O)(O)O)[C@@H](O)[C@H]2O)c1` [3-AcPyrADP]: in series [1], the inhibitory constant (Ki) was 0.34 ± 0.05 mM.
Same read-out and setting: under `O=C(O)CS[C@H](C(=O)O)[C@@H](O)C(=O)O` [Thiahomoisocitrate] stands 20 ± 3 mM.
For orientation: pKa means the negative logarithm of the acid dissociation constant. For the molecule “Homoisocitrate dehydrogenase (ScHIcDH) (Saccharomyces cerevisiae)”, in series [2] (Steady-state turnover. V profile: enzyme saturated with NAD and MgHIc.), the pKa is 9.5.
In the case of “Homoisocitrate dehydrogenase (ScHIcDH) K206M mutant (Saccharomyces cerevisiae; K206M)”, in series [2] (Steady-state turnover at saturating reactants (V/Et)), the pKa was 9.5.
Turning to “Homoisocitrate dehydrogenase (ScHIcDH) Y150F mutant (Saccharomyces cerevisiae; Y150F)”, in series [3], the pKa was 6.
